Experiment [1] addresses T1, TNC III1-5 (human, UniProt P24821 622-1074).
T1 construct: The secreted protein in the assays lacks the leader; also called TG-TNC III1-5; engineered TNC III1-5
T1 sequence: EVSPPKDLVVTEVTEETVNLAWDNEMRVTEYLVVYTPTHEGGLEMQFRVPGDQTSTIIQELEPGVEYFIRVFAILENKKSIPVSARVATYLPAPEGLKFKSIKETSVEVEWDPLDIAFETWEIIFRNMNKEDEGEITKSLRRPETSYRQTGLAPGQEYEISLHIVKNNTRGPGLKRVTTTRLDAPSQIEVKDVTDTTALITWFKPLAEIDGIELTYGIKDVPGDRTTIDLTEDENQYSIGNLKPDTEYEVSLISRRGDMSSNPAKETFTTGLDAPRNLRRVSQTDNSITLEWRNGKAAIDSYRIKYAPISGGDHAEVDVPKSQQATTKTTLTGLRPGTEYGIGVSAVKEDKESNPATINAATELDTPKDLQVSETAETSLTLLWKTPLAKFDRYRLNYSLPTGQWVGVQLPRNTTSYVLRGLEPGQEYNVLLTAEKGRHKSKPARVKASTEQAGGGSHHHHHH
In words: ELISA: cytokine coated (50 nM), 100 nM TNC III1-5 in solution, HRP-anti-His, A450; black bars without, white bars with 4 µM heparin. On the procedure: (§1) ELISA plates were coated with cytokines or BSA and further incubated with TNC III1-5 to analyze binding of TNC III1-5 to a wide variety of cytokines. […] A large amount of heparin (4 μM) impaired binding of TNC III1-5 to these cytokines. Results are depicted in FIG. 3. Method: 50 nM of cytokine was coated for (1 hr, 37° C.). After blocking with 2% BSA (1 hr, RT). 100 nM TNC III1-5 was applied in PBST (0.05% tween, 0.1% bovine serum albumin (BSA)) (1 hr, RT). TNC III1-5 was detected with horseradish peroxidase (HRP)-anti-HIS in PBST (1 hr, RT) and developed with 3,3′,5,5′-tetramethylbenzidine (TMB), a soluble colorimetric HRP […]. Addition of sulfuric acid stop solution changes the color to yellow, enabling accurate measurement of the intensity at 450 nm using a spectrophotometer or plate reader. […] Heparin (4 μM) was added to TNC III1-5 to test the effect of blocking the heparin binding site of TNC III1-5, which has been defined as domain TNC III5 (Weber, Zimmermann, et al., 1995).
On the technique in general: In an ELISA, binding on a coated surface is turned into a signal by an enzyme label.

Experiment [2] concerns the target T1, TNC III1-5. In words: ELISA: cytokine coated (50 nM), 100 nM TNC III1-5 in solution, HRP-anti-His, A450. The protocol: as §1
The target of the next experiment is T2, PDGF-BB (UniProt P01127 82-190).
T2 construct: The name implies a homodimer of B chains
T2 sequence (P01127 82-190 limits assumed): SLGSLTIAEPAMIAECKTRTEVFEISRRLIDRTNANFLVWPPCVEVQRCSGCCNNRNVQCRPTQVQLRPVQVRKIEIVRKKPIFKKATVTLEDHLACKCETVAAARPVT
In words: ELISA: GST-fused TNC domains, GST and BSA coated, 2 nM PDGF-BB in solution, anti-PDGF-BB antibody and HRP secondary, A450. The protocol: An ELISA was performed to test the affinity of different domains present in TNC1-5 to PDGF-BB as an example cytokine that has shown to bind TNC III1-5. Domain TNC III5 was defined to be responsible for cytokine binding. Method: ELISA plates were coated with individual TNC domains fused to GST, as well as GST and BSA. Wells were blocked with BSA and then incubated with 2 nM PDGF-BB. Binding of PDGF-BB was detected using an anti-PDGF-BB antibody and then a secondary horseradish peroxidase conjugated antibody.

B1: VEGF-C (ligand, UniProt P49767 112-227, looked up)
chain: AHYNTEILKSIDNEWRKTQCMPREVCIDVGKEFGVATNTFFKPPCVSVYRCGGCCNSEGLQCMNTSTSYLSKTLFEITVPLSQGPKPVTISFANHTSCRCMSKLDVYRQVHSIIRR
Consider B1, for which, in the experiment with TNC III1-5 [1], the binding result was “binds”.

B2: FGF-17 (ligand, UniProt O60258 23-216, looked up)
chain: TQGENHPSPNFNQYVRDQGAMTDQLSRRQIREYQLYSRTSGKHVQVTGRRISATAEDGNKFAKLIVETDTFGSRVRIKGAESEKYICMNKRGKLIGKPSGKSKDCVFTEIVLENNYTAFQNARHEGWFMAFTRQGRPRQASRSRQNQREAHFIKRLYQGQLPFPNHAEKQKQFEFVGSAPTRRTKRTRRPQPLT
On to B2, for which the binding result in the experiment with TNC III1-5 [1] is listed as “binds”.

B3: FGF-6 (ligand, UniProt P10767 38-208, looked up)
chain: SPAGTRANNTLLDSRGWGTLLSRSRAGLAGEIAGVNWESGYLVGIKRQRRLYCNVGIGFHLQVLPDGRISGTHEENPYSLLEISTVERGVVSLFGVRSALFVAMNSKGRLYATPSFQEECKFRETLLPNNYNAYESDLYQGTYIALSKYGRVKRGSKVSPIMTVTHFLPRI
With B3, the binding result with TNC III1-5 [1] is reported as “binds”.

B4: BMP-2 (ligand, UniProt P12643 283-396, looked up)
chain: QAKHKQRKRLKSSCKRHPLYVDFSDVGWNDWIVAPPGYHAFYCHGECPFPLADHLNSTNHAIVQTLVNSVNSKIPKACCVPTELSAISMLYLDENEKVVLKNYQDMVVEGCGCR
For the molecule B4, in the experiment with TNC III1-5 [1], the binding result was “binds”.

B5: FGF-7 (ligand, UniProt P21781 32-194, looked up)
chain: CNDMTPEQMATNVNCSSPERHTRSYDYMEGGDIRVRRLFCRTQWYLRIDKRGKVKGTQEMKNNYNIMEIRTVAVGIVAIKGVESEFYLAMNKEGKLYAKKECNEDCNFKELILENHYNTYASAKWTHNGGEMFVALNQKGIPVRGKKTKKEQKTAHFLPMAIT
B5: the binding result with TNC III1-5 [1] was “binds”.

B6: TGF-β3 (ligand)
chain: ALDTNYCFRNLEENCCVRPLYIDFRQDLGWKWVHEPKGYYANFCSGPCPYLRSADTTHSTVLGLYNTLNPEASASPCCVPQDLEPLTILYYVGRTPKVEQLSNMVVKSCKCS
modifications: Natural form is a disulfide-linked homodimer; one protomer is given.
For the molecule B6, the binding result in the experiment with TNC III1-5 [2] is on record as “no binding (tested: 100 nM)”.

B7: TNC III5 fused to GST (other, human, UniProt P24821 991-1074, looked up)
chain: LQVSETAETSLTLLWKTPLAKFDRYRLNYSLPTGQWVGVQLPRNTTSYVLRGLEPGQEYNVLLTAEKGRHKSKPARVKASTEQA
notes: domain: TNC III5; also called domain TNC III5; not shown: GST
For B7, the binding result with PDGF-BB is recorded as “binds”.

B8: FGF-20 (ligand)
chain: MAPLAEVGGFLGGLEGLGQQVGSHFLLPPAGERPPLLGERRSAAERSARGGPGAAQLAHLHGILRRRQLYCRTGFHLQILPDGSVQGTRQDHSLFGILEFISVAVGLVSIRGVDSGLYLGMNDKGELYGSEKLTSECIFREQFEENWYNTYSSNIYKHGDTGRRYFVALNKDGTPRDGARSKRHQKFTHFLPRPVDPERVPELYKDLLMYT
As for B8, in the experiment with TNC III1-5 [2], the binding result is listed as “no binding (tested: 100 nM)”.

B9: VEGF-A165 (ligand, UniProt P15692-4 27-191, looked up)
chain: APMAEGGGQNHHEVVKFMDVYQRSYCHPIETLVDIFQEYPDEIEYIFKPSCVPLMRCGGCCNDEGLECVPTEESNITMQIMRIKPHQGQHIGEMSFLQHNKCECRPKKDRARQENPCGPCSERRKHLFVQDPQTCKCSCKNTDSRCKARQLELNERTCRCDKPRR
Regarding B9, the binding result with TNC III1-5 [1] is recorded as “binds”.

B10: BDNF (ligand, UniProt P23560 129-247, looked up)
chain: HSDPARRGELSVCDSISEWVTAADKKTAVDMSGGTVTVLEKVPVSKGQLKQYFYETKCNPMGYTKEGCRGIDKRHWNSQCRTTQSYVRALTMDSKKRIGWRFIRIDTSCVCTLTIKRGR
notes: also called brain-derived neurotrophic factor
For the molecule B10, the binding result with TNC III1-5 [1] is recorded as “binds”.

B11: FGF-4 (ligand, UniProt P08620 31-206, looked up)
chain: APTAPNGTLEAELERRWESLVALSLARLPVAAQPKEAAVQSGAGDYLLGIKRLRRLYCNVGIGFHLQALPDGRIGGAHADTRDSLLELSPVERGVVSIFGVASRFFVAMSSKGKLYGSPFFTDECTFKEILLPNNYNAYESYKYPGMFIALSKNGKTKKGNRVSPTMKVTHFLPRL
Take B11: in the experiment with TNC III1-5 [1], the binding result was “binds”.

B12: TNC III3 (other, human, UniProt P24821 805-894, looked up)
GST fusion: APSQIEVKDVTDTTALITWFKPLAEIDGIELTYGIKDVPGDRTTIDLTEDENQYSIGNLKPDTEYEVSLISRRGDMSSNPAKETFTTGLD
notes: domain fragment; also called TNC III3 fused to GST
As to B12, the binding result with PDGF-BB is reported as “no binding (tested: 2 nM PDGF-BB)”.

B13: FGF-10 (ligand, UniProt O15520 38-208, looked up)
chain: QALGQDMVSPEATNSSSSSFSSPSSAGRHVRSYNHLQGDVRWRKLFSFTKYFLKIEKNGKVSGTKKENCPYSILEITSVEIGVVAVKAINSNYYLAMNKKGKLYGSKEFNNDCKLKERIEENGYNTYASFNWQHNGRQMYVALNGKGAPRRGQKTRRKNTSAHFLPMVVHS
For the molecule B13, the binding result with TNC III1-5 [1] is recorded as “binds”.

B14: TGF-β2 (ligand, UniProt P61812 303-414, looked up)
chain: ALDAAYCFRNVQDNCCLRPLYIDFKRDLGWKWIHEPKGYNANFCAGACPYLWSSDTQHSRVLSLYNTINPEASASPCCVSQDLEPLTILYYIGKTPKIEQLSNMIVKSCKCS
Take B14: the binding result with TNC III1-5 [1] is on record as “binds”.

B15: FGF-18 (ligand, UniProt O76093 28-207, looked up)
chain: EENVDFRIHVENQTRARDDVSRKQLRLYQLYSRTSGKHIQVLGRRISARGEDGDKYAQLLVETDTFGSQVRIKGKETEFYLCMNRKGKLVGKPDGTSKECVFIEKVLENNYTALMSAKYSGWYVGFTKKGRPRKGPKTRENQQDVHFMKRYPKGQPELQKPFKYTTVTKRSRRIRPTHPA
Turning to B15, in the experiment with TNC III1-5 [1], the binding result is on record as “binds”.

B16: TNC III4 (other, human, UniProt P24821 895-990, looked up)
GST fusion: APRNLRRVSQTDNSITLEWRNGKAAIDSYRIKYAPISGGDHAEVDVPKSQQATTKTTLTGLRPGTEYGIGVSAVKEDKESNPATINAATELDTPKD
notes: domain fragment; also called TNC III4 fused to GST
For the molecule B16, the binding result with PDGF-BB is “binds”.

B17: PlGF-2 (ligand, UniProt P49763-3 19-170, looked up)
chain: LPAVPPQQWALSAGNGSSEVEVVPFQEVWGRSYCRALERLVDVVSEYPSEVEHMFSPSCVSLLRCTGCCGDENLHCVPVETANVTMQLLKIRSGDRPSYVELTFSQHVRCECRPLREKMKPERRRPKGRGKRRREKQRPTDCHLCGDAVPRR
As for B17, the binding result in the experiment with TNC III1-5 [1] is on record as “binds”.

B18: EGF (ligand)
chain: NSDSECPLSHDGYCLHDGVCMYIEALDKYACNCVVGYIGERCQYRDLKWWELR
On to B18, for which, in the experiment with TNC III1-5 [2], the binding result is given as “no binding (tested: 100 nM)”.

The values above are taken from patent US20140011978A1 (EPFL TTO, published 2014).
